From patent publication US20150344570A1 (published 2015)

T1: FcγRIIb extracellular domain with C-terminal His tag (human, UniProt P31994 43-217)
T1 construct: extracellular domain; Expressed in FreeStyle293 cells; analyte in the SPR assay; also called FcgRIIb; 2b
T1 sequence (looked up): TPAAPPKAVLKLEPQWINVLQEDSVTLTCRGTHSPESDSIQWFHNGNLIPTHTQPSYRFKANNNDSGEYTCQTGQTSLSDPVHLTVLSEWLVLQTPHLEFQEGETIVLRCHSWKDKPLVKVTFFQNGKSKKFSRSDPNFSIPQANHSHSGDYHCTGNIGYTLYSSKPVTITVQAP


Key:
[1] = target: T1, FcγRIIb extracellular domain with …; assay: SPR (Biacore), relative binding, HeCon Ab = 100
[2] = target: T2, FcγRIa extracellular domain with C-terminal His tag (human, UniProt P12314 16-292); assay: SPR (Biacore), relative binding, HeCon Ab = 100
T2 construct: extracellular domain; Expressed in FreeStyle293 cells; analyte in the SPR assay; also called FcgRI; 1a
T2 sequence (P12314 16-292): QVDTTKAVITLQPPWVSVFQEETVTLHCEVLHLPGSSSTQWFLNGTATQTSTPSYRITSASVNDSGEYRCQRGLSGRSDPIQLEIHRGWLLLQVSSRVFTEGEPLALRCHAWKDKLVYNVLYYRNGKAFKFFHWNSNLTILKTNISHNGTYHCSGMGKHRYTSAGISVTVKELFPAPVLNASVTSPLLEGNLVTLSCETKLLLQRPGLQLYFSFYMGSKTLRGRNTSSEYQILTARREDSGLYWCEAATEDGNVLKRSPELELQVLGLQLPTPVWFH

[3] = target: T2, FcγRIa extracellular domain with …; assay: SPR (Biacore); He/Con_1a divided by He/Con_2b (FcγRIa against FcγRIIb)

| Binder | He/Con_2b [1] | He/Con_1a [2] | He_1a/2b (Ia/IIb) [3] |
| --- | --- | --- | --- |
| GpH7-A5/GpH7-B3 variant G236_03V/GpL16-k0 (He Ab) (antibody, human IgG1, kappa, He Ab: mutation in one H chain only) heavy 1: not shown heavy 2: not shown light: DIVMTQSPLSLPVTPGEPASISCQASESLVHSNRNTYLHWYLQKPGQSPQLLIYKVSNRFSGVPDRFSGSGSGTDFTLKISRVEAEDVGVYYCSQNTHVPPTFGQGTKVEIERTVAAPSVFIFPPSDEQLKSGTASVVCLLNNFYPREAKVQWKVDNALQSGNSQESVTEQDSKDSTYSLSSTLTLSKADYEKHKVYACEVTHQGLSSPVTKSFNRGEC | 35.3 % of HeCon Ab (=100) | 89.9 % of HeCon Ab (=100) | 2.55 ratio |
| GpH7-A5/GpH7-B3 variant L234_14T/GpL16-k0 (He Ab) (antibody, human IgG1, kappa, He Ab: mutation in one H chain only) heavy 1: not shown heavy 2: not shown light: DIVMTQSPLSLPVTPGEPASISCQASESLVHSNRNTYLHWYLQKPGQSPQLLIYKVSNRFSGVPDRFSGSGSGTDFTLKISRVEAEDVGVYYCSQNTHVPPTFGQGTKVEIERTVAAPSVFIFPPSDEQLKSGTASVVCLLNNFYPREAKVQWKVDNALQSGNSQESVTEQDSKDSTYSLSSTLTLSKADYEKHKVYACEVTHQGLSSPVTKSFNRGEC | 62.5 % of HeCon Ab (=100) | 98.6 % of HeCon Ab (=100) | 1.58 ratio |
| GpH7-A5/GpH7-B3 variant L234_06M/GpL16-k0 (He Ab) (antibody, human IgG1, kappa, He Ab: mutation in one H chain only) heavy 1: not shown heavy 2: not shown light: DIVMTQSPLSLPVTPGEPASISCQASESLVHSNRNTYLHWYLQKPGQSPQLLIYKVSNRFSGVPDRFSGSGSGTDFTLKISRVEAEDVGVYYCSQNTHVPPTFGQGTKVEIERTVAAPSVFIFPPSDEQLKSGTASVVCLLNNFYPREAKVQWKVDNALQSGNSQESVTEQDSKDSTYSLSSTLTLSKADYEKHKVYACEVTHQGLSSPVTKSFNRGEC | 78.5 % of HeCon Ab (=100) | 104 % of HeCon Ab (=100) | 1.32 ratio |
| GpH7-A5/GpH7-B3 variant G236_04F/GpL16-k0 (He Ab) (antibody, human IgG1, kappa, He Ab: mutation in one H chain only) heavy 1: not shown heavy 2: not shown light: DIVMTQSPLSLPVTPGEPASISCQASESLVHSNRNTYLHWYLQKPGQSPQLLIYKVSNRFSGVPDRFSGSGSGTDFTLKISRVEAEDVGVYYCSQNTHVPPTFGQGTKVEIERTVAAPSVFIFPPSDEQLKSGTASVVCLLNNFYPREAKVQWKVDNALQSGNSQESVTEQDSKDSTYSLSSTLTLSKADYEKHKVYACEVTHQGLSSPVTKSFNRGEC | 39.3 % of HeCon Ab (=100) | 96.4 % of HeCon Ab (=100) | 2.45 ratio |
| GpH7-A5/GpH7-B3 variant L234_07I/GpL16-k0 (He Ab) (antibody, human IgG1, kappa, He Ab: mutation in one H chain only) heavy 1: not shown heavy 2: not shown light: DIVMTQSPLSLPVTPGEPASISCQASESLVHSNRNTYLHWYLQKPGQSPQLLIYKVSNRFSGVPDRFSGSGSGTDFTLKISRVEAEDVGVYYCSQNTHVPPTFGQGTKVEIERTVAAPSVFIFPPSDEQLKSGTASVVCLLNNFYPREAKVQWKVDNALQSGNSQESVTEQDSKDSTYSLSSTLTLSKADYEKHKVYACEVTHQGLSSPVTKSFNRGEC | 80.9 % of HeCon Ab (=100) | 103 % of HeCon Ab (=100) | 1.27 ratio |
| GpH7-A5/GpH7-B3 variant L234_01G/GpL16-k0 (He Ab) (antibody, human IgG1, kappa, He Ab: mutation in one H chain only) heavy 1: not shown heavy 2: not shown light: DIVMTQSPLSLPVTPGEPASISCQASESLVHSNRNTYLHWYLQKPGQSPQLLIYKVSNRFSGVPDRFSGSGSGTDFTLKISRVEAEDVGVYYCSQNTHVPPTFGQGTKVEIERTVAAPSVFIFPPSDEQLKSGTASVVCLLNNFYPREAKVQWKVDNALQSGNSQESVTEQDSKDSTYSLSSTLTLSKADYEKHKVYACEVTHQGLSSPVTKSFNRGEC | 50.7 % of HeCon Ab (=100) | 96.1 % of HeCon Ab (=100) | 1.9 ratio |
| GpH7-A5/GpH7-B3 variant L234_13S/GpL16-k0 (He Ab) (antibody, human IgG1, kappa, He Ab: mutation in one H chain only) heavy 1: not shown heavy 2: not shown light: DIVMTQSPLSLPVTPGEPASISCQASESLVHSNRNTYLHWYLQKPGQSPQLLIYKVSNRFSGVPDRFSGSGSGTDFTLKISRVEAEDVGVYYCSQNTHVPPTFGQGTKVEIERTVAAPSVFIFPPSDEQLKSGTASVVCLLNNFYPREAKVQWKVDNALQSGNSQESVTEQDSKDSTYSLSSTLTLSKADYEKHKVYACEVTHQGLSSPVTKSFNRGEC | 59.3 % of HeCon Ab (=100) | 96.9 % of HeCon Ab (=100) | 1.63 ratio |

More lines, now with the values ahead:

| He/Con_2b [1] | He/Con_1a [2] | He_1a/2b (Ia/IIb) [3] | Binder |
| --- | --- | --- | --- |
| 64.9 % of HeCon Ab (=100) | 97.5 % of HeCon Ab (=100) | 1.5 ratio | GpH7-A5/GpH7-B3 variant L234_02A/GpL16-k0 (He Ab) (antibody, human IgG1, kappa, He Ab: mutation in one H chain only) heavy 1: not shown heavy 2: not shown light: DIVMTQSPLSLPVTPGEPASISCQASESLVHSNRNTYLHWYLQKPGQSPQLLIYKVSNRFSGVPDRFSGSGSGTDFTLKISRVEAEDVGVYYCSQNTHVPPTFGQGTKVEIERTVAAPSVFIFPPSDEQLKSGTASVVCLLNNFYPREAKVQWKVDNALQSGNSQESVTEQDSKDSTYSLSSTLTLSKADYEKHKVYACEVTHQGLSSPVTKSFNRGEC |
| 16.2 % of HeCon Ab (=100) | 91.8 % of HeCon Ab (=100) | 5.67 ratio | GpH7-A5/GpH7-B3 variant L234_11K/GpL16-k0 (He Ab) (antibody, human IgG1, kappa, He Ab: mutation in one H chain only) heavy 1: not shown heavy 2: not shown light: DIVMTQSPLSLPVTPGEPASISCQASESLVHSNRNTYLHWYLQKPGQSPQLLIYKVSNRFSGVPDRFSGSGSGTDFTLKISRVEAEDVGVYYCSQNTHVPPTFGQGTKVEIERTVAAPSVFIFPPSDEQLKSGTASVVCLLNNFYPREAKVQWKVDNALQSGNSQESVTEQDSKDSTYSLSSTLTLSKADYEKHKVYACEVTHQGLSSPVTKSFNRGEC |
| 18.9 % of HeCon Ab (=100) | 91.8 % of HeCon Ab (=100) | 4.86 ratio | GpH7-A5/GpH7-B3 variant L234_12R/GpL16-k0 (He Ab) (antibody, human IgG1, kappa, He Ab: mutation in one H chain only) heavy 1: not shown heavy 2: not shown light: DIVMTQSPLSLPVTPGEPASISCQASESLVHSNRNTYLHWYLQKPGQSPQLLIYKVSNRFSGVPDRFSGSGSGTDFTLKISRVEAEDVGVYYCSQNTHVPPTFGQGTKVEIERTVAAPSVFIFPPSDEQLKSGTASVVCLLNNFYPREAKVQWKVDNALQSGNSQESVTEQDSKDSTYSLSSTLTLSKADYEKHKVYACEVTHQGLSSPVTKSFNRGEC |
| 72.9 % of HeCon Ab (=100) | 99.9 % of HeCon Ab (=100) | 1.37 ratio | GpH7-A5/GpH7-B3 variant L234_05P/GpL16-k0 (He Ab) (antibody, human IgG1, kappa, He Ab: mutation in one H chain only) heavy 1: not shown heavy 2: not shown light: DIVMTQSPLSLPVTPGEPASISCQASESLVHSNRNTYLHWYLQKPGQSPQLLIYKVSNRFSGVPDRFSGSGSGTDFTLKISRVEAEDVGVYYCSQNTHVPPTFGQGTKVEIERTVAAPSVFIFPPSDEQLKSGTASVVCLLNNFYPREAKVQWKVDNALQSGNSQESVTEQDSKDSTYSLSSTLTLSKADYEKHKVYACEVTHQGLSSPVTKSFNRGEC |
| 19 % of HeCon Ab (=100) | 77 % of HeCon Ab (=100) | 4.05 ratio | GpH7-A5/GpH7-B3 variant G236_05P/GpL16-k0 (He Ab) (antibody, human IgG1, kappa, He Ab: mutation in one H chain only) heavy 1: not shown heavy 2: not shown light: DIVMTQSPLSLPVTPGEPASISCQASESLVHSNRNTYLHWYLQKPGQSPQLLIYKVSNRFSGVPDRFSGSGSGTDFTLKISRVEAEDVGVYYCSQNTHVPPTFGQGTKVEIERTVAAPSVFIFPPSDEQLKSGTASVVCLLNNFYPREAKVQWKVDNALQSGNSQESVTEQDSKDSTYSLSSTLTLSKADYEKHKVYACEVTHQGLSSPVTKSFNRGEC |
| 59.4 % of HeCon Ab (=100) | 94 % of HeCon Ab (=100) | 1.58 ratio | GpH7-A5/GpH7-B3 variant L234_16H/GpL16-k0 (He Ab) (antibody, human IgG1, kappa, He Ab: mutation in one H chain only) heavy 1: not shown heavy 2: not shown light: DIVMTQSPLSLPVTPGEPASISCQASESLVHSNRNTYLHWYLQKPGQSPQLLIYKVSNRFSGVPDRFSGSGSGTDFTLKISRVEAEDVGVYYCSQNTHVPPTFGQGTKVEIERTVAAPSVFIFPPSDEQLKSGTASVVCLLNNFYPREAKVQWKVDNALQSGNSQESVTEQDSKDSTYSLSSTLTLSKADYEKHKVYACEVTHQGLSSPVTKSFNRGEC |
| 73.1 % of HeCon Ab (=100) | 104 % of HeCon Ab (=100) | 1.43 ratio | GpH7-A5/GpH7-B3 variant L234_03V/GpL16-k0 (He Ab) (antibody, human IgG1, kappa, He Ab: mutation in one H chain only) heavy 1: not shown heavy 2: not shown light: DIVMTQSPLSLPVTPGEPASISCQASESLVHSNRNTYLHWYLQKPGQSPQLLIYKVSNRFSGVPDRFSGSGSGTDFTLKISRVEAEDVGVYYCSQNTHVPPTFGQGTKVEIERTVAAPSVFIFPPSDEQLKSGTASVVCLLNNFYPREAKVQWKVDNALQSGNSQESVTEQDSKDSTYSLSSTLTLSKADYEKHKVYACEVTHQGLSSPVTKSFNRGEC |
